Measurements published in patent publication EP4806914A1.

B1: fourth anti-AAV-scFv [4] (scFv)
scFv: QSLEESGGDLVKPGASLTLTCTASGFSFSSSAYMCWVRQAPGKGLEWIGCMHTISSVDTYYASWAKGRFAISKASSTTVTLQMTSLTAADTATYFCARDDRNGYGYPYSFDIWGPGTLVTVTSGGGGSGGGGSGGGGSELDLTQTAASVEAAVGGTITIKCQASQTISSYLAWYQQKPGQPPKLLIYRASTLASGVSSRFKGSGSGTEYTLTISDLECADAATYYCLTYYGNSHNFGGGTEVVIKGSAAAGGGSEQKLISEEDLGGGSHHHHHH
B2: third anti-AAV-scFv [3] (scFv)
scFv: QSVEESGGDLVKPGASLTLTCTASGIDFSSGYDMCWVRQAPGKGLEWIGCIYTGGDSAWYASWAKGRFTISKTSSTTVTLQMTSLTGADTATYFCANDLDSGTVSIWGPGTLVTVTSGGGGSGGGGSGGGGSELVLTQTAASVSEPVGGTVTIKCQASQSISSWLSWYQQKPGQPPKLLIYQASKLASGVPSRFKGSGSGTQFTLTISDVVCDDAATYYCAGWTSSTTDGTAFGGGTEVVITGSAAAGGGSEQKLISEEDLGGGSHHHHHH
B3: first anti-AAV-scFv [1] (scFv)
scFv: QSLEESGGGLVKPGASLTLTCTASGFSFSSYGISWFRQAPGKGLEWIGTIYGGSSGSTYYASWAKGRFTISKTSSTTMTLQMASLTAADTATYFCARDRVGGNGYADLWGPGTLVTVTSGGGGSGGGGSGGGGSELVMTQTAASVEAAVGGTVTIKCQASQSISSYLAWYQQKPGQRPKLLIYRASTLASGVSSRFKGSGSGTEYTLTISDLECDDAATYYCQSHYDIRNYGVAFGGGTEVDIKRSAAAGGGSEQKLISEEDLGGGSHHHHHH
B4: second anti-AAV-scFv [2] (scFv)
scFv: QSLEESGGDLVKPGASLTLTCTASGFSFSSNYWMFWVRQAPGKGLEWIAHIYGGSSGSTYYASWAKGRFTISKTSSTTVTLQMTSLTAADTATYFCATVDNGYSDLKLWGPGTLVTVTSGGGGSGGGGSGGGGSELVLTQTADSVEAGVGGTVTIKCQASQSIRNWLSWYQQKPGQPPKLLISRASTLASGVPSRFSGSGSGTEFTLTISDLECDDGATYYCQSSFYADSGEPAFGGGTEVDIKRSAAAGGGSEQKLISEEDLGGGSHHHHHH

target: AAV9 empty capsid (adeno-associated virus serotype 9 (AAV9)); test: ELISA, 0.1 ug AAV9 coated on Maxisorp plate, scFv detected with HRP-labeled anti-His-Tag antibody, A450-A650; reference: blank (BSA)

Going from B1 to B2, the IE/IB (ratio of ELISA absorbance for the empty capsid sample to that for the blank (BSA)) falls from 3.09 to 2.22.

With B3 the IE/IB (ratio of ELISA absorbance for the empty capsid sample to that for the blank (BSA)) was 1.5.

target: AAV9 full capsid (adeno-associated virus serotype 9 (AAV9)); test: ELISA, 0.1 ug AAV9 coated on Maxisorp plate, scFv detected with HRP-labeled anti-His-Tag antibody, A450-A650; reference: AAV9 empty capsid sample

Going from B4 to B1, the IF/IE (ratio of ELISA absorbance for the full capsid sample to that for the empty capsid sample) falls from 8.23 to 7.17.

First: B2
Second: B3
The IF/IE (ratio of ELISA absorbance for the full capsid sample to that for the empty capsid sample) of the first is lower: 6.11 for the first, 6.54 for the second.
